Consider 1 molecule from patent US20050049403A1 (CAMBRIDGE ANTIBODY TECHNOLOGY, published 2005).

In assay [1] the target is T1, recombinant human TGFβ2 (human, UniProt P61812 303-414).
T1 construct: mature; also called TGFbeta2; rhTGFβ2
T1 sequence (looked up): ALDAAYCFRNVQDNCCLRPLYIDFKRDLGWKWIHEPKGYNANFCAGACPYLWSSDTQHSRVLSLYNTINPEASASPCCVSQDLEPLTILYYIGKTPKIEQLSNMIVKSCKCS
Put plainly: BIAcore 2000, antigen immobilised, antibody as analyte. The protocol:
The immobilisation of ligand is automated by the BIACore 2000 machine, and all steps are carried out in the autosampler or in the flowcell, on the dextran surface of the chip. The buffer used throughout the immobilisation procedure, and the analysis of samples is Hepes-buffered saline (HBS) with a surfactant (Pharmacia Biosensor). The chips (Pharmacia, CM5), have dextran coating on a thin layer of gold. NHS at 100 mM and EDC at 400 mM are mixed by the autosampler, and then a fixed volume is injected over the flowcell surface. This is followed by an injection of antigen in a suitable buffer. In the case of TGFβ, a surface of the correct density was given by using 25-30 μg/ml solution of TGFβ2 (AMS) OR TGFβ3 (R & D systems) in 10 mM acetate. After injection of the ligand, the chip is blocked using 1M ethanolamine. The total amount of TGFβ bound was assessed from the total increase in resonance units over this period.
(§1) To determine the kinetic parameters, a series of dilutions of the antibody samples was made in HBS from about 500 μg/ml down to less than 1 μg/ml, usually through doubling dilutions. After the antibody has been injected over the antigen surface, the surface is washed with HBS, then regenerated by stripping off the bound antibody with a pulse of 100 mM HCl. At the higher concentrations of antibody the antigen on the chip surface is saturated, and the off rate is determined on washing with buffer in the dissociation phase. For determination of the on-rate, lower concentrations of antibody are used, giving a linear binding phase in the sensorgram, allowing kₒₙ determination.
(§2) 6B1 IgG4 was purified from the GS/NS0 cell line of Example 10 as in Example 2. 6B1 single chain Fv was expressed intracellularly in E. coli, refolded in vitro (using the methodology of WO94/18227), and purified to give a homogeneous product. The values of kₒₙ and koff were determined for 6B1 IgG4 for binding to both TGFβ2 and TGFβ3, and for the single-chain Fv 6B1 for binding to TGFβ2. The dissociation constant was calculated by dividing koff by kₒₙ.
Background: In SPR one partner is held on a chip, and binding of the other changes the refractive index at the surface.

Assay [2] has as its target irrelevant peptide …. Kind of assay: BIACore, peptide at 745 µM (1 mg/ml) over immobilised 6B1 IgG4 (5000RU).
Assay [3] has as its target T2, TGFβ2 in rat tissue sections (rat, UniProt Q07257 331-442, limits assumed).
T2 construct: also called rat TGFβ2
T2 sequence (looked up): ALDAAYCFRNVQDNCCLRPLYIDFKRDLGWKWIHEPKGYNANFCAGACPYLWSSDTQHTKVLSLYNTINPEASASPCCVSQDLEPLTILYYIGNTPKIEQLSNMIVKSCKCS
Put plainly: immunohistochemistry, 6B1 IgG4 at 500 ng/ml on pronase E treated rat kidney sections. The protocol:
Paraffin embedded rat tissues were de-waxed and rehydrated through an alcohol series. The sections were then treated with 0.1% pronase E for exactly 8 min and then washed in water. TGFβ2 was detected in the sections using 6B1 IgG4 at 500 ng/ml following the protocol provided with a Vectastain ABC (avidin-biotin-complex) kit from Vector Laboratories. On kidney sections, bound antibody was located with alkaline phosphatase and peroxidase was used on rat brain tissues.

Assay [4] has as its target T3, phage peptide display clone VESTSLQFRG (fourth clone, printed as Clone 3).
T3 construct: also called Clone 3 (second of that label)
T3 peptide: VESTSLQFRG
Kind of assay: phage ELISA on coated 6B1 IgG4 after four rounds of panning. The protocol: (§3) Purified 6B1 IgG4 antibody at 10 μg/ml in 4 ml of PBS was coated onto a plastic tube (Nunc; maxisorp) by incubating overnight at 4° C. After washing and blocking with MPBS (see Example 1) an aliquot of the peptide library containing 5×10¹³ phage in 4 ml 3% MPBS was added to the tube and incubated at room temperature for 1.5 hours. The tube was washed 10 times with PBST(0.1%), then 10 times with PBS. Bound phage particles were eluted from the tube by adding 4 ml of 100 mM triethylamine and incubating the tube stationary for 10 minutes at room temperature. The eluted phage were then added to a tube containing 2 ml 1M-Tris.HCl (pH7.4) and 10 ml 2YT broth. The phage were then added to 20ml of logarithmically growing E. coli TG1 cells and grown for 1 hour shaking at 100 rpm at 37° C. The infected cells were then plated on 2YT agar medium with 15 μg/ml tetracycline in 243 mm×243 mm dishes (Nunc). Plates were incubated at 30° C. for 18 hours. Colonies were scraped off the plates into 10 ml 2TY broth containing 15% (v/v) glycerol for storage at −70° C.
(§4) These clones were screened for clones that bound specifically to the antibody 6B1 in ELISA. Cells from the master plates were used to inoculate 96 well tissue culture plates containing 100 μl 2YT broth (containing 15 μg/ml tetracycline) per well and grown overnight with gentle shaking at 100 rpm at 30° C. The plates were then centrifuged at 2000 rpm. The 100 μl phage supernatants from each well were recovered and each was mixed with 100 μl of 4% skimmed milk powder in 2×PBS. 100 μl of each of these was then assayed by phage ELISA. Purified 6B1 IgG4 antibody at 10 μg/ml in PBS was coated onto flexible microtitre plates by incubating overnight at 4° C. Control plates coated with an irrelevant IgG4 antibody at 10 μg/ml were also prepared. The ELISAs were performed as described in Example 1, and visualised with the chromagenic substrate pNPP (Sigma).
A general note: In an ELISA, binding on a coated surface is turned into a signal by an enzyme label.

In assay [5] the target is T4, phage peptide display Clone 1 (RQLSLQQRMH).
T4 peptide: RQLSLQQRMH
The assay is described as above. The protocol: as §3, §4

Assay [6] addresses T5, phage peptide display Clone 3 (WSEFMRQSSL).
T5 peptide: WSEFMRQSSL
Described as above. The procedure:
as §3, §4

The target of assay [7] is T6, phage peptide display Clone 2 (DPMDMVLKLC).
T6 peptide: DPMDMVLKLC
The description is as above. The procedure: as §3, §4

A further assay deals with recombinant human TGFβ1 (human, UniProt P01137 279-390). Kind of assay: cell-based or functional assay.
In assay [8] the target is T1, recombinant human TGFβ2. Kind of assay: cell-based or functional assay.
Assay [9] has as its target T1, recombinant human TGFβ2. Put plainly: BIAcore 2000, koff divided by kon. The protocol:
as §1, §2

recombinant human TGFβ1, sequence (P01137 279-390 limits assumed): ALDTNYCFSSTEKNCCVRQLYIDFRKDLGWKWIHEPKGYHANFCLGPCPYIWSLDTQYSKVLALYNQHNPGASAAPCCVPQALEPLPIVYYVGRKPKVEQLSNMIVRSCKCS

B1: 6B1 IgG4 (antibody, V domains shown)
VH: EVQLVESGGGVVQPGRSLRLSCAASGFTFSSYGMHWVRQAPGKGLEWVAVIWYDGSNKYYADSVKGRFTISRDNSKNTLYLQMDSLRAEDTAVYYCGRTLESSLWGQGTLVTVSS
VL: SSELTQDPAVSVALGQTVRITCQGDSLRSYYASWYQQKPGQAPVLVIYGKNNRPSGIPDRFSGSSSGNTASLTITGAQAEDEADYYCNSRDSSSTHRGVFGGGTKLTVLG
notes: Whole antibody: human gamma 4 and human lambda constant regions; FITC-labelled in the human tissue study; also called antibody 6B1
A word on the koff: it is the rate constant with which the complex falls apart. For orientation: kon means a measure of how fast the partners come together. In general, Kd refers to a measure of binding affinity in units of concentration. For the molecule B1, in the assay with recombinant human TGFβ2 [1], the koff came to 0.000336 s⁻¹. In addition, the kon with recombinant human TGFβ2 [1] was 384000 M⁻¹ s⁻¹. The same molecule showed an amount of binding to 6B1 IgG4 surface, RU in [2] of 60.9 RU. The binding result in [3], in assay [4], in [5], in [6] and in assay [7] was “binds” throughout. For the same molecule, the “TF1 cell proliferation assay IC50 (nM IgG)” value with recombinant human TGFβ1 was greater than 100 nM; with recombinant human TGFβ2 [8], 2 nM. The Kd with recombinant human TGFβ2 [9] worked out at 0.89 nM.
